Laboratory results taken from publication PMC6277709, “Lipid-Modified Azurin of Neisseria gonorrhoeae Is Not Surface Exposed and Does Not Interact With the Nitrite Reductase AniA” (Frontiers in Microbiology, 2018).

Biological target: the molecule itself
Assay: cross-linking; in vivo: intact living N. gonorrhoeae (WT or Δlaz, grown under standard aerobic conditions) in PBS with 0, 0.1, 0.25 or 0.4 mM DSP, 37°C, 5% CO2, 30 min; quenched with 50 mM Tris-HCl pH 8.0; SDS-PAGE without reducing agent at 4°C; immunoblot with anti-BamA, anti-AniA or anti-Laz antiserum

B1: Nitrite reductase AniA of Neisseria gonorrhoeae FA1090, endogenous in living gonococci (enzyme)
chain: CGGEQAAQAPAETPAASAEAASSAAQATAETPAGELPVIDAVTTHAPEVPPAIDRDYPAKVRVKMETVEKTMKMDDGVEYRYWTFDGDVPGRMIRVREGDTVEVEFSNNPSSTVPHNVDFHAATGQGGGAAATFTAPGRTSTFSFKALQPGLYIYHCAVAPVGMHIANGMYGLILVEPKEGLPKVDKEFYIVQGDFYTKGKKGAQGLQPFDMDKAVAEQPEYVVFNGHVGSIAGDNALKAKAGETVRMYVGNGGPNLVSSFHVIGEIFDKVYVEGGKLINENVQSTIVPAGGSAIVEFKVDIPGSYTLVDHSIFRAFNKGALGQLKVEGAENPEIMTQKLSDTAYAGSGAASAPAASAPAASAPAASASEKSVY
notes: source: endogenous, living N. gonorrhoeae FA1090 (WT and Δlaz) cells
stoichiometry N: 3
